One molecule from US20240342298A1, “METHODS OF TREATING TUMORS BY USING MOLECULAR CONSTRUCT” (Immunwork Inc., priority 2023, published 2024) can be followed below.

What is called EC50 is the concentration that produces a half-maximal response. A higher EC50 goes with a need for much substance.

The target in one assay is T1, human CD38 (Homo sapiens, UniProt P28907).
T1 construct: The cDNA of full-length human CD38 was cloned into pCDH-CMV-MCS-Ef1α-Puro expression vector; expressed in transfected cells; host or cells: HEK293T (lentiviral transduction with pCDH-CMV-CD38, puromycin selection)
Description: cell-based ELISA binding to human CD38-overexpressing 293T cells. The method, then:
The cDNA of full-length human CD38 was cloned into pCDH-CMV-MCS-Ef1α-Puro expression vector to generate lentiviral-based CD38-expressing plasmid, pCDH-CMV-CD38. Lentivirus was packaged by co-transfecting pCDH-CMV-CD38, pCMV-VSV-G, and pCMV8R8.91 into HEK293T cells. Human CD38-overexpressing HEK293T cells were transduced with lentivirus infection and cultured with 1 μg/mL puromycin three days post-infection.
On the technique in general: ELISA stands for enzyme-linked immunosorbent assay.

The next assay deals with U266-CD38- cells. Description: alamarBlue cell viability assay, U266-CD38- cells. The conditions noted are these: 5 days, FIG. 12F. In kind it is cell-based. The method, then:
(§1) Briefly, H929, U266-CD38^−, MM.1S, and Daudi cells were seeded at 5,000 cells/well in 96-well plates and co-cultured with fresh medium containing different test articles with the indicated concentrations at 37° C. for 5 hours, 1 day, 3 days, or 5 days. The viabilities of the cells were determined by alamarBlue™ cell viability reagent. About 10 μl alamarBlue™ cell viability reagent was added to the cells with a final concentration of 10% v/v, followed by incubating at 37° C. for 1.5 hours. The fluorescence was measured on a microplate reader in arbitrary fluorescent units following excitation at 560 nm and emission at 590 nm.
(§2) H929 cells were incubated for 5 hours, 1 day, 3 days, or 5 days (FIGS. 12A-12D), and MM.1S, U266-CD38-, and Daudi cells were incubated for 5 days (FIGS. 12E-12G). Then, cell viability was determined.

In the next assay the test system is MM.1S cells. As to the kind of experiment: alamarBlue cell viability assay, MM.1S cells. It is filed as cell-based, human. The conditions noted are these: even at doses >20 μM. The procedure: as §1, §2
In the next assay the test system is H929 cells. Description: alamarBlue cell viability assay, H929 cells. In kind it is cell-based, human. As to conditions: even at doses >20 μM. The method, then: as §1, §2

B1: 2-chain (anti-CD38 scFv)-hIgG1.Fc-(Gly)3-BM fusion protein: dimer of (anti-CD38 scFv)-hIgG1.Fc-(Gly)3-BM, SEQ ID NO: 12; scFv VL and VH derived from daratumumab (protein)
chain: EIVLTQSPATLSLSPGERATLSCRASQSVSSYLAWYQQKPGQAPRLLIYDASNRATGIPARFSGSGSGTDFTLTISSLEPEDFAVYYCQQRSNWPPTFGQGTKVEIKGSTSGSGKPGSGEGSTKGEVQLLESGGGLVQPGGSLRLSCAVSGFTFNSFAMSWVRQAPGKGLEWVSAISGSGGGTYYADSVKGRFTISRDNSKNTLYLQMNSLRAEDTAVYFCAKDKILWFGEPVFDYWGQGTLVTVSSGGGASDKTHTCPPCPAPELLGGPSVFLFPPKPKDTLMISRTPEVTCVVVDVSHEDPEVKFNWYVDGVEVHNAKTKPREEQYNSTYRVVSVLTVLHQDWLNGKDYKCKVSNKALPAPIEKTISKAKGQPREPQVYTLPPSRDELTRNQVSLTCLVKGFYPSDIAVEWESNGQPENNYKTTPPVLDSDGSFFLYSKLTVDKSRWQQGNVFSCSVMHEALHNHYTQKSLSLSPGGGGACPGHA
modifications: homodimer
notes: scFv VL and VH derived from daratumumab
Regarding B1, the EC50 with human CD38 worked out at 0.84 nM. Also, the killing effect entry in the assay on U266-CD38- cells is on record as “did not possess any killing effect”. The “effect of cell death” value with MM.1S cells and in the assay on H929 cells was “no effect of cell death” in each case.
